Source: patent publication US20200283528A1 (NUMAB THERAPEUTICS, published 2020)
Where a chain is given by its changes, count along the chain named. One block for each binder: values may come before it.

What was measured:
[1] = target: T1, human PDL1 expressed on cells (human, UniProt Q9NZQ7 19-290); assay: cell-based or functional assay
[2] = target: T2, human PDL1 (recombinant, soluble) (human, UniProt Q9NZQ7 19-238); assay: PDL1/PD-1 competition ELISA; PD-1 coated, biotinylated PDL1 1 ng/ml
T2 construct: also called hPDL1; hPD-L1
Description: (§1) ELISA microplates coated overnight at 4° C. with 4 μg/ml human PD-1 were washed three times with 450 μl wash buffer per well. Plates were blocked for 1 hour at room temperature by adding 300 μl of PBS with 1% BSA and 0.2% tween (dilution buffer) to each well. […] The mixtures were pre-incubated for 1 hour at room temperature under gentle agitation on a rotating mixer (21 rpm) and added to the microplates after 3 wash cycles with 450 μl wash buffer per well. Plates were incubated for 1.5 hours at room temperature under gentle agitation, then 10 ng/ml streptavidin-polyHRP40 was added to each microplate well after three washes with 450 μl of wash buffer per well. After 1 h incubation at RT, plates were washed three times with 450 μl wash buffer and TMB substrate solution was added. The enzymatic reaction was stopped after 6 minutes by addition of 1 M HCl and absorbance was measured at 450 nm using 690 nm as a reference wavelength. For calculation of IC₅₀ values, a four-parameter logistic (4PL) curve fit was performed in Graph Pad Prism using reference subtracted values.

[3] = target: T2, human PDL1 (recombinant, soluble); assay: PDL1/B7-1 competition ELISA; B7-1 coated; scFv
Description: (§2) ELISA plates were coated by adding 50 μl of PBS containing 4 μg/ml B7-1 overnight at 4° C. Next day, plates were washed three times in overflow mode with 450 μl wash buffer (PBS, 0.005% Tween 20) per wells and 300 μl of blocking buffer (PBS, 1% BSA, 0.2% Tween 20) were added to each well for 1 h at RT on a nutating mixer. […] ELISA pates were washed 3 times in overflow mode with 450 μl wash buffer and two times 50 μl of each dilution was added in adjacent wells of the ELISA plates in order to generate duplicates. Plates were incubated 90 minutes at RT under gentle agitation. After three washes with 450 μl of washing buffer, 50 μl of streptavidin-polyHRP40 was added to each wells of the ELISA plate. After 1 h incubation at RT, plates were washed three times with 450 μl wash buffer and developed for 5 to 10 minutes after addition of 50 μl TMB. Finally, the enzymatic reaction was stopped by addition of 50 μl of 1 M HCl and plate was read at 450 nm using 690 nm as a reference wavelength.

Fc tagged human PDL1 [4] = target: T3, Fc tagged human PDL1 (human, UniProt Q9NZQ7 19-238); assay: SPR Biacore T200; Fc tagged PDL1 captured; scFv 0.12-30 nM
T3 construct: also called PDL1-Fc chimeric protein (human); not shown: Fc tag
Description: (§3) After each analyte injection cycle, the CM5 sensor chip was regenerated and new antigen was captured. The scFvs were injected as analyte using a dose response multicycle kinetic assay with concentrations of the analyte ranging from 0.12 to 30 nM diluted in running buffer for 5 min and dissociation of the protein was allowed to proceed for 12 min. Obtained sensorgrams were fitted using the 1:1 binding model.

[5] = target: cynomolgus PDL1, recombinant (Sino Biological) / PDL1-Fc chimeric protein (cynomolgus (Macaca fascicularis), UniProt G7PSE7 19-238); assay: SPR Biacore T200; cynomolgus PDL1 (Sino Biological) captured; scFv as analyte
cynomolgus PDL1, recombinant (Sino Biological) / PDL1-Fc chimeric protein, sequence (G7PSE7 entry or part of it mutant limits assumed): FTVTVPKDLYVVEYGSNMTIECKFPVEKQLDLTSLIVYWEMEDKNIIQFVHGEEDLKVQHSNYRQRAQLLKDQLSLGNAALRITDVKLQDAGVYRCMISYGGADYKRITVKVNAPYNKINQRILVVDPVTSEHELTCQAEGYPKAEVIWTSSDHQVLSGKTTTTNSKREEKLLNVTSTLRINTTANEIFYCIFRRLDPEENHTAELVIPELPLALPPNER
Description: as §3

Fc tagged human PDL1 [6] = target: T3, Fc tagged human PDL1; assay: SPR Biacore T200; PDL1-Fc captured; molecule 0.12-90 nM
Description: (§4) An antibody specific for the Fc region of human IgGs was immobilized on a sensor chip (CM5 sensor chip, GE Healthcare) by amine-coupling. […] After each injection cycle, surfaces were regenerated with one injection of a 3 M MgCl₂ solution. The apparent dissociation (kd) and association (kₐ) rate constants and the apparent dissociation equilibrium constant (KD) were calculated using one-to-one Langmuir binding model.

[7] = target: T1, human PDL1 expressed on cells; assay: cell-based or functional assay; remark: listed apart in the source
[8] = target: T2, human PDL1 (recombinant, soluble); assay: PDL1/B7-1 competition ELISA; B7-1 coated, biotinylated PDL1 40 ng/ml
Description: as §1, with “B7-1” for “PD-1”

[9] = target: T1, human PDL1 expressed on cells; assay: cell-based or functional assay; remark: listed apart in the source
[10] = target: T1, human PDL1 expressed on cells; assay: cell-based or functional assay; remark: listed apart in the source
Fc tagged human PDL1 [11] = target: T3, Fc tagged human PDL1; assay: SPR Biacore T200; PDL1-Fc captured
Description: as §4

[12] = target: T2, human PDL1 (recombinant, soluble); assay: PDL1/PD-1 competition ELISA; PD-1 coated; scFv
Description: as §2, with “4 μg/ml PD-1 overnight at” for “4 μg/ml B7-1 overnight at”, “μl of 10 ng/ml streptavidin-polyHRP40 were” for “μl of streptavidin-polyHRP40 was”, “ng/ml streptavidin-polyHRP40 were added to” for “of streptavidin-polyHRP40 was added to”, “the ELISA plates. After 1” for “the ELISA plate. After 1”

Fc tagged human PDL2 = target: T4, Fc tagged human PDL2 (human, UniProt Q9BQ51 20-219); assay: SPR Biacore T200; Fc tagged human PDL2 captured; scFv as analyte
T4 construct: not shown: Fc tag
T4 sequence (looked up): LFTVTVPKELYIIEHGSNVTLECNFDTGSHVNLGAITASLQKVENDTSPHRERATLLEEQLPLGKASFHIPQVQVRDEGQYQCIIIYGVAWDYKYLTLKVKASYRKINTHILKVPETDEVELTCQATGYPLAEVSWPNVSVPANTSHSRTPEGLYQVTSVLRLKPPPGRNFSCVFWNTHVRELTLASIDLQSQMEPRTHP
Description: Humanized scFvs were tested for binding to PDL2 by SPR analysis on a T200 device (Biacore, GE Healthcare). In this experiment, Fc tagged human PDL2 was captured using the Human Antibody Capture kit from GE healthcare. After each analyte injection cycle the CM5 sensor chip was regenerated and new antigen was captured. The scFvs were injected as analyte at a concentration of 180 nM diluted in running buffer for 5 min and dissociation of the protein was allowed to proceed for 12 min.

[13] = target: T1, human PDL1 expressed on cells; assay: flow cytometry on CHO-PDL1 cells; scFv detected by APC labelled protein-L

B2: PRO1392 (33-03-G02-sc18 scFv) (scFv)
scFv: DIQMTQSPSSLSASVGDRVTITCQASQSINDYLAWYQQKPGKAPKLLIYKASTLASGVPSRFSGSGSGTDFTLTISSLQPEDFATYYCQQGYIITDIDNVFGTGTKVTVLGGGGGSGGGGSGGGGSGGGGSQVQLQESGPGLVKPSETLSLTCKASGFSFSSGYDMCWVRQPPGKGLEWIACVVAGSVDITYYASWAKGRVTISKDSSKNQVSLKLSSVTAADTAVYYCARKDAYSDAFNLWGQGTLVTVSS
IC50 [3]: 1.19 ng/mL
Maximum Inhibition (%) [3]: 93.2%
Kd (Fc tagged human PDL1 [4]): 9.94 pM
koff (Fc tagged human PDL1 [4]): 6.16e-05 s⁻¹
kon (Fc tagged human PDL1 [4]): 6.19e+06 M⁻¹ s⁻¹
KD, cyno/KD, human [5]: 2
Kd [5]: 19.9 pM
koff [5]: 8.87e-05 s⁻¹
kon [5]: 4.45e+06 M⁻¹ s⁻¹
reporter gene assay IC50 [7]: 12 ng/mL
reporter gene assay Maximum Inhibition (%) [7]: 96.7%
binding result (Fc tagged human PDL2): no binding (tested: 180 nM)
IC50 [12]: 0.47 ng/mL
Maximum Inhibition (%) [12]: 99.9%

B4: PRO830 (33-03-G02-sc01 scFv) (scFv)
scFv: B2 scFv with A155V, V169I, A181G, K205V, V212F
notes: also called 33-03-G02 CDR
IC50 [2]: 3.4 ng/mL
IC50 [3]: 6.11 ng/mL
Maximum Inhibition (%) [3]: 94.5%
koff (Fc tagged human PDL1 [4]): 0.000159 s⁻¹
KD, cyno/KD, human [5]: 0.97
Kd [5]: 74 pM
koff [5]: 0.000182 s⁻¹
kon [5]: 2.46e+06 M⁻¹ s⁻¹
EC50 [13]: 20.2 ng/mL
reporter gene assay IC50 [7]: 37.5 ng/mL
reporter gene assay Maximum Inhibition (%) [7]: 105%
IC50 [8]: 12.9 ng/mL
NF-AT potency assay IC50 [9]: 42.9 ng/mL
IC50 [12]: 3.45 ng/mL
Maximum Inhibition (%) [12]: 99.8%

These reach a lower Kd [5]. Values come first.

NFAT reporter gene assay, fold potency of VH4 graft (PRO997) against VH1 graft (PRO1013) [1]: ~2 fold
IC50 [2]: 0.5 ng/mL
IC50 [3]: 1.21 ng/mL
Maximum Inhibition (%) [3]: 93.1%
Kd (Fc tagged human PDL1 [4]): 5.94 pM
koff (Fc tagged human PDL1 [4]): 4.02e-05 s⁻¹
kon (Fc tagged human PDL1 [4]): 6.76e+06 M⁻¹ s⁻¹
KD, cyno/KD, human [5]: < 0.28
Kd [5]: < 1.68 pM
kon [5]: 5.96e+06 M⁻¹ s⁻¹
Kd (Fc tagged human PDL1 [6]): 1.7 pM
reporter gene assay IC50 [7]: 8.02 ng/mL
reporter gene assay Maximum Inhibition (%) [7]: 95.3%
IC50 [8]: 6.36 ng/mL
NF-AT potency assay IC50 [9]: 11.1 ng/mL
IL-2 secretion of SEA stimulated PBMC, EC50 in ng/ml [10]: 40.9 ng/mL
fold higher affinity against the STR graft of clone 33-03-G02 (Fc tagged human PDL1 [11]): ~2 fold
IC50 [12]: 0.33 ng/mL
Maximum Inhibition (%) [12]: 100%
B1: PRO997/PRO908 (37-20-B03-sc01 scFv) (scFv)
scFv: DIQMTQSPSSLSASVGDRVTITCQASQSIGTYLAWYQQKPGKAPKLLIYRAFILASGVPSRFSGSGSGTDFTLTISSLQPEDFATYYCQSNFYSDSTTIGPNAFGTGTKVTVLGGGGGSGGGGSGGGGSGGGGSQVQLQESGPGLVKPSETLSLTCKVSGFSFNSDYWIYWIRQPPGKGLEWIGSIYGGSSGNTQYASWAQGRVTISVDSSKNQFSLKLSSVTAADTAVYYCARGYVDYGGATDLWGQGTLVTVSS
notes: VL-linker-VH, VH4 CDR graft; PRO997 was made in CHO-S cells, PRO908 in bacteria; also called 37-20-B03 CDR

IC50 [3]: 0.977 ng/mL
Maximum Inhibition (%) [3]: 95.4%
Kd (Fc tagged human PDL1 [4]): < 2.1 pM
koff (Fc tagged human PDL1 [4]): < 1e-05 s⁻¹
kon (Fc tagged human PDL1 [4]): 4.77e+06 M⁻¹ s⁻¹
KD, cyno/KD, human [5]: < 5.58
Kd [5]: 11.7 pM
koff [5]: 1.82e-05 s⁻¹
kon [5]: 1.55e+06 M⁻¹ s⁻¹
reporter gene assay IC50 [7]: 9.98 ng/mL
reporter gene assay Maximum Inhibition (%) [7]: 102%
binding result (Fc tagged human PDL2): no binding (tested: 180 nM)
IC50 [12]: 0.36 ng/mL
Maximum Inhibition (%) [12]: 99.8%
B3: PRO1183 (33-03-G02-sc03 scFv) (scFv)
scFv: B2 scFv with I2F, M4L, A43S, V133S, Y228F
notes: also called 33_03_G02 sc03 Full
